These results are taken from publication PMC6013234, “DENR–MCTS1 heterodimerization and tRNA recruitment are required for translation reinitiation” (PLoS Biology, 2018).

For this experiment, the target named is T1, untagged full-length WT MCTS1 (human, UniProt Q9ULC4 1-181).
T1 construct: MCTS1, human, ORF in pETDuet under its own T7 promotor, untagged; also called MCT-1; source: E. coli BL21 (DE3), coexpressed with HIS-tagged DENR variants; in lysate for the pull-down, co-purified (NiNTA, SEC) for crystallization
T1 sequence (looked up): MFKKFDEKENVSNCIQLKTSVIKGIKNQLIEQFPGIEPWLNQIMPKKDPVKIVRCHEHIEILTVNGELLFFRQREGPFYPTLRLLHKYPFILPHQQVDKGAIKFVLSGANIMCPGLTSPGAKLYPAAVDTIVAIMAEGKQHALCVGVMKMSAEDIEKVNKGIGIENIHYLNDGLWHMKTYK
The experiment can be described thus: pull-down; N-terminally HIS-tagged DENR variants or fragments coexpressed with untagged MCTS1 in E. coli; DENR purified over a nickel column, copurifying MCTS1 detected in the eluate. As to conditions: partners not purified.

B1: NHis6-tagged DENR aas 24–51 (domain or fragment, human, UniProt O43583 24-51, looked up)
chain: DADYPLRVLYCGVCSLPTEYCEYMPDVA
notes: DENR, human, residues 24-51; also called DENR(aa24–51); DENR peptide; source: E. coli BL21 (DE3), coexpressed with untagged MCTS1; in lysate for the pull-down, purified (NiNTA, SEC) for crystallization; not shown: His6, N-terminal, kept
For B1, the binding result is reported as “binds”.
